From PMC3684756 (MicrobiologyOpen, 2013)

Biological target: the molecule itself
Assay: Thioflavin T amyloid formation assay

B1: His-Lsm4^1–170 (domain or fragment)
chain: MLPLYLLTNAKGQQMQIELKNGEIIQGILTNVDNWMNLTLSNVTEYSEESAINSEDNAESSKAVKLNEIYIRGTFIKFIKLQDNIIDKVKQQINSNNNSNSNGPGHKRYYNNRDSNNNRGNYNRRNNNNGNSNRRPYSQNRQYNNSNSSNINNSINSINSNNQNMNNGLG
Q: Does B1 bind?
A: Result: binds
